Data taken from US20250382379A1 (VISTERRA, published 2025).
Where a chain is given by its changes, count along the chain named. One block for each binder: values may come before it.

Assays:
[1] = biological target: T1, human CD138 (syndecan-1), membrane-bound on CD138+ multiple myeloma cell lines (human, UniProt P18827 23-310); assay: flow cytometry on U266 cells, geometric MFI
T1 construct: whole, on cells; also called membrane CD138; cell surface CD138
T1 sequence (looked up): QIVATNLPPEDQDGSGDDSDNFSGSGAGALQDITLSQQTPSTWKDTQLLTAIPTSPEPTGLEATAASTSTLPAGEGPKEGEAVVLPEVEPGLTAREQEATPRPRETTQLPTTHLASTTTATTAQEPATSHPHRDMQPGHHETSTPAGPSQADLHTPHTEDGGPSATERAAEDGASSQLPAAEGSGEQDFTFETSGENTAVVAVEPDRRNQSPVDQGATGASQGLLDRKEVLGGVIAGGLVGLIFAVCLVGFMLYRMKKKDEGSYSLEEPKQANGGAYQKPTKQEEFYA

[2] = biological target: T1, human CD138 (syndecan-1), …; assay: flow cytometry on U266 cells, maximal MFI, reference BB4
Procedure: The antibodies were then serially diluted three-fold. Antibody binding to membrane CD138 was evaluated using the CD138+ human lymphoblastic myeloma cell line U266 and quantified by flow cytometry. Antibody cell binding was reported as geometric mean fluorescence intensity (MFI). Binding data were plotted using nonlinear regression analysis and a 4-parameter curve fit.
Antibody cell binding was reported as geometric mean fluorescence intensity (MFI). Binding data were plotted using nonlinear regression analysis and a 4-parameter curve fit.

[3] = biological target: T2, human CD138 derived peptide 2A (integrin binding domain), biotinylated (human, biotinylated (site not stated)); assay: antigen capture ELISA, antibody coated, biotinylated peptide titrated from 50 nM
T2 construct: also called Pep2a
T2 peptide: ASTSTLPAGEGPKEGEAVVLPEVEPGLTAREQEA
Procedure: (§1) 1 or select human CD138 derived peptides (Table 3) was evaluated by antigen capture ELISA. […] The immobilized monoclonal antibodies were tested for binding to biotinylated recombinant CD138 extracellular domain or peptides 2A, peptide 6A in 5-fold serial antigen dilutions starting at starting at a 50 nM concentration. HRP-conjugated Anti-biotin secondary antibody (1:10000 dilution) was used for detection.

[4] = biological target: T3, human CD138 derived peptide 6A (membrane proximal region), biotinylated (human, biotinylated (site not stated)); assay: as above
T3 construct: also called Pep6a
T3 peptide: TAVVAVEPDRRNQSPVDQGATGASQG
Procedure: as §1

[5] = biological target: T4, extracellular domain of soluble human CD138 (amino acids 18-251 of SEQ ID NO 1), biotinylated recombinant (human, UniProt P18827 18-251, biotinylated (site not stated)); assay: antigen capture ELISA, antibody coated, biotinylated CD138 extracellular domain, reference BB4
T4 construct: also called CD138 extracellular domain; soluble extracellular domain of human CD138
T4 sequence: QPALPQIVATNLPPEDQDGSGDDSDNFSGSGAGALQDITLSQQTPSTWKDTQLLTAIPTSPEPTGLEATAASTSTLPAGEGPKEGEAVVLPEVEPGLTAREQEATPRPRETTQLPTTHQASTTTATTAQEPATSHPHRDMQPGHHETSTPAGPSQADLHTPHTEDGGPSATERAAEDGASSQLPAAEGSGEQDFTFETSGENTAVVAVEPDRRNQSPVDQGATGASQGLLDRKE
Procedure: as §1

[6] = biological target: T1, human CD138 (syndecan-1), …; assay: flow cytometry on MM1.S, LP-1 and RPMI 8226 cells

B3: humanized anti-CD138 antibody variant 4326 (antibody, human IgG1, V domains shown)
VH: QVQLVQSGAEVKKPGASVKVSCKASGYSFSSYYMHWVRQAPGQGLEWMGTIHPSDSTTNYNQKFQGRVTMTVDTSTRTAYMELSSLRSEDTAVYYCANFVYWGQGTTVTVSS
VL: DIVMTQSPDSLAVSLGERATINCKSSQSLLYKDGKTYLNWFQQKPGQPPKLLIYVVSTRASGVPDRFSGSGSGTDFTLTISSLQAEDVAVYYCQQLVEYPYTFGQGTKLEIK
notes: also called mAb 4326
- binding result [6]: binds

B4: humanized anti-CD138 antibody variant 3821 (antibody, human IgG1, V domains shown)
VH: B3 VH with A16S, T58A, Q65K, M70I, T74K, R77S
VL: DIVMTQTPLSLSVTPGQPASISCKSSKSLLYKDGKTYLNWFLQKPGQSPQLLIYVVSTRASGVPDRFSGSGSGTDFTLKISRVEAEDVGVYYCQQLVQYPYTFGQGTKLEIK
notes: also called mAb 3821
- binding result [6]: binds

B5: humanized anti-CD138 antibody variant 4321 (antibody, human IgG1, V domains shown)
VH: B3 VH
VL: B4 VL
notes: also called mAb 4321
- binding result [6]: binds

B7: humanized anti-CD138 antibody variant 3820 (antibody, human IgG1, V domains shown)
VH: B3 VH with A16S, T58A, Q65K, M70I, T74K, R77S
VL: B4 VL with Q98E
notes: also called mAb 3820
- binding result [6]: binds

Next, values leading:

- binding result [1]: binds
B1: mouse chimeric anti-CD138 antibody 2810 (antibody, V domains shown)
VH: QVQLHQPGTSLVKPGASVKLSCKASGYSFSSYYMHWVKQRPGQGLEWIGTIHPSDSTTNYNQKFKGKATLTVDKSSRTAYMQLNSLTFEDSAVYYCANFVYWGQGTSVTVSS
VL: DIVITQDELSNPVTSGDSVSISCRSSKSLLYKDGKTYLNWFLQRPGQSPQLLIYVVSTRASGVSDRFSGSGSGTDFTLEISRVKAEDVGVYYCQQLVEYPYTFGGGTKLEIK
notes: Described as a mouse-human chimeric antibody; also called mAb2810

- total cell surface binding (maximal MFI) relative to antibody BB4 [2]: ~25 % greater than BB4
- binding result [3]: binds
- binding result [4]: binds
- fold higher binding affinity in comparison to BB4 [5]: ~6 fold
B2: humanized anti-CD138 antibody mAb 4320 (antibody, human IgG1, kappa, V domains shown)
VH: B3 VH
VL: DIVMTQTPLSLSVTPGQPASISCKSSKSLLYKDGKTYLNWFLQKPGQSPQLLIYVVSTRASGVPDRFSGSGSGTDFTLKISRVEAEDVGVYYCQQLVEYPYTFGQGTKLEIKR
notes: Produced with 2FF in the medium to reduce core fucose of the N297 glycan

- binding result [6]: binds
B6: humanized anti-CD138 antibody variant 4521 (antibody, human IgG1, V domains shown)
VH: B3 VH with S28N, S30A, Q65K, R77S
VL: B4 VL
notes: also called mAb 4521
